Data as given in patent US20250340655A1, “EPHA2-TARGETING ANTIBODIES AND THEIR APPLICATIONS IN CANCER TREATMENT” (TAIPEI MEDICAL UNIVERSITY, priority 2022, published 2025).
Ends that are not written are not given here. BSA = bovine serum albumin carrier conjugated to the peptide

Assays:
Mia PaCa-2 tumor = Mia PaCa-2 tumor xenograft model (IgG hSD5, gemcitabine); format: in vivo, mouse; details: Mia PaCa-2 xenograft
Method: (§1) The freshly prepared BxPc-3 and Mia PaCa-2 cancer cells were harvested during the log growth phase and resuspended in PBS for tumor implantation. Each NOD/SCID mouse was subcutaneously inoculated with cancer cells (5×10^6 to BxPc-3 and 1×10^7 to Mia PaCa-2) for tumor formation. The tumor size was measured twice weekly, and the volume was calculated as follows: V=0.5lw^2, where l=the length and w=the width. When the tumor size was approximately 100 mm3, animals were divided into groups that received (a) vehicle alone through intravenous injection (i.v.) once weekly (qwk), (b) control human IgG1 at 20 mg/kg through i.v. qwk, (c) and (d) hSD5 IgG1 at 2 or 20 mg/kg through i.v. qwk, (e) and (f) gemcitabine at 20 or 100 mg/kg through i.v. twice weekly (biw), or (g) hSD5 IgG1 at 2 mg/kg through i.v. qwk combined with gemcitabine at 20 mg/kg through i.v. biw. At the end of the experiment, the antitumor effects were quantified by dividing the tumor volumes in the treatment groups by those in the control groups and multiplying them by 100 to represent tumor growth inhibition (TGI; %). The mice were also examined frequently for overt signs of adverse drug-related side effects.
(§2) The pancreatic tissue microarray slide (US Biomax, PA483e) was used to detect and analyze the EphA2 expression of clinical samples. In the xenograft animal model, the excised BxPc-3 and Mia PaCa-2 tumors were fixed in formalin, embedded in paraffin, and sliced for immunohistochemical staining (IHC). Commercial antibodies (Cell signaling, Dako; Agilent Technologies; and Abcam) were used for staining the EphA2 molecule, cell proliferation marker Ki-67, and apoptosis marker cleaved caspase 3. The effects of staining were observed using a Zeiss Axioskop-2 microscope (Carl Zeiss).
(§3) Mia PaCa-2 xenograft mice was also used to determine the inhibitory effect of IgG hSD5 on in vivo tumor growth. Administration of IgG hSD5 (20 mg/kg, iv, qwk, indicated as blue filled inverted triangles) and Gemcitabine (100 mg/kg, iv, biw, indicated as orange filled squares) were used to test the inhibition effect on BxPc-3 tumor growth, n=6, TGI denotes Tumor growth inhibition. (FIG. 8A) Administration of IgG hSD5 (2 mg/kg, iv, qwk, indicated by solid black triangles), Gemcitabine (20 mg/kg, iv, biw, indicated by black open squares), and the experimental group that combined IgG and Gemcitabine treatment simultaneously (indicated by solid red diamonds) were used to teat the growth inhibitory effect of BxPc-3 on the tumor. (FIG. 8B) During treatments, the weight changes of each mouse group were tracked. (FIG. 8C) The expression levels of EphA2, cell proliferation marker Ki67, and apoptosis-related marker cleaved caspase3 in the excised tumor groups were analyzed by IHC staining. (FIG. 8D)

BxPc-3 tumor = BxPc-3 tumor xenograft model (IgG hSD5, gemcitabine); format: in vivo, mouse; details: BxPc-3 xenograft, iv
Method: as §1, §2
as §3, with “Administration” for “Mia PaCa-2 xenograft mice was also used to determine the inhibitory effect of IgG hSD5 on in vivo tumor growth. Administration”, “7A)” for “8A)”, “7B)” for “8B)”, “7C)” for “8C)”, “7D)” for “8D)”

[1] = target: T1, recombinant EphA2 protein (UniProt P29317 24-537, limits assumed); assay: biolayer interferometry
T1 construct: Coated on ELISA plates, run on Native-PAGE and used in biolayer interferometry
T1 sequence (P29317 24-537 limits assumed): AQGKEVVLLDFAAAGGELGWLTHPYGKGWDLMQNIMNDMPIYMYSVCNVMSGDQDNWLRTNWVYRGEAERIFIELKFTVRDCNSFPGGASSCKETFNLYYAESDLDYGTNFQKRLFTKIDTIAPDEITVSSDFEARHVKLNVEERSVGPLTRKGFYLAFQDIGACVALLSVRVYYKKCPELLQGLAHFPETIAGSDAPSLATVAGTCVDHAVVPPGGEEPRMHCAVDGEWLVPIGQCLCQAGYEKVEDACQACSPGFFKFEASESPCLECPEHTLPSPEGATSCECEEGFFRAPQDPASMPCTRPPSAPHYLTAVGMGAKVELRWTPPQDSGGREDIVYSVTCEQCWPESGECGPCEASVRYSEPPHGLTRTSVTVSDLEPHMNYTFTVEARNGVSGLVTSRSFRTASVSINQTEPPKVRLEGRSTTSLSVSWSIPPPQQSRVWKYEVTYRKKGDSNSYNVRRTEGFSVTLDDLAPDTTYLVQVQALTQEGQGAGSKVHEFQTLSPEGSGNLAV

[2] = target: T2, EphA2pep_PIP2 (BSA-CGGGWDLMQNIMNDMPIYMYSVGGGGGGSVSSDFEARHV) (conjugated with BSA (printed BSA-C...)); assay: peptide ELISA on BSA-conjugated peptides
T2 construct: also called long peptide
T2 peptide: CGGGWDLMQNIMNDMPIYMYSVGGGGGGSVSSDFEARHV
Method: (§4) These peptides were synthesized and conjugated with BSA (Kelowna International Scientific). The BSA-conjugated peptides were individually coated on a 96-well microplate at 4° C. overnight. […] Next, an HRP-conjugated anti-HA tag antibody (Cell Signaling Technology) was used to detect bound scFv. Finally, the TMB substrate was added for development, and the reaction was stopped by adding 1 N HCl. Absorbance was measured by determining the OD at 450 nm. […] Blocking with 3% BSA was performed at RT for 1 h. […] After the membrane was washed, the HRP-conjugated anti-HA tag antibody was added, and the reaction was allowed to proceed for 1 h at RT. Lastly, DAB was used to initiate the coloration reaction.
(§5) The two short peptides located on the designed activation site of EphA2 are EphA2pep_P1 and EphA2pep_P2, respectively. The long peptide formed by linking the two short peptides is EphA2pep_PIP2. NCIpep and NC2pep are two irrelevant peptides as the negative control. EphA2 ECD is a recombinant EphA2 extracellular domain protein.

[3] = target: T3, EphA2pep_P2 (BSA-CGGGGGGSVSSDFEARHV); assay: peptide ELISA on BSA-conjugated peptides
T3 peptide: {BSA}-CGGGGGGSVSSDFEARHV
Method: as §4, §5

[4] = target: T4, EphA2pep_P1 (BSA-CGGGWDLMQNIMNDMPIYMYSV) (conjugated with BSA (printed BSA-C...)); assay: peptide ELISA on BSA-conjugated peptides
T4 peptide: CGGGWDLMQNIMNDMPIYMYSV
Method: as §4, §5

[5] = target: T1, recombinant EphA2 protein; assay: ELISA, serially diluted scFv on coated recombinant EphA2
Method: The recombinant EphA2 protein (0.5 ug/well) was coated onto the wells of the microtiter plate at 4° C. overnight. The wells were blocked with 5% skim milk, and scFv or phage was then added to the wells at room temperature for 1 h. After the wells were washed with PBST, the bound scFv or phage was then detected and developed using horseradish peroxidase (HRP)-conjugated goat anti-chicken light chain antibodies (Bethyl Laboratories) or HRP-conjugated anti-M13 antibodies (GE Healthcare Life Science). Finally, the substrate 3,5,5-tetramethubezidine dihydrochloride (TMB) was added for signal development. The reaction was stopped by adding 1 N HCl, and absorbance was measured by determining optical density (OD) at 450 nm.
Four representative scFvs were serially diluted to test the percentage of binding to EphA2 molecules. (FIG. 3C) After gene sequencing, we serially diluted the four isolated representative scFvs to test the binding reaction to EphA2.

BxPc-3 cells = assay: Antibody internalization (endocytosis) assay; format: cell-based, human; details: BxPc-3, 1 h, 37° C. vs 4° C. (FIG. 6B)
Method: BxPc-3 cells were seeded on cover glasses placed in the wells of a 6-well culture plate. The BxPc-3 seeded glass slides were incubated with ephrin A1-Fc (Sino Biological) or IgG hSD5 for 1 h at 37° C. or 4° C. After washing with PBS, the cells were fixed with 100% ice methanol for 10 min. Next, the cells were stained with an FITC-conjugated anti-human Fc antibody and were subsequently mounted with ProLong Diamond Antifade Mountant comprising 4′,6-diamidino-2-phenylindole for nuclear counterstaining (Invitrogen). The cells were imaged using a confocal microscope (Leica Microsystems).

For Nc1ccn([C@@H]2O[C@H](CO)[C@@H](O)C2(F)F)c(=O)n1 [Gemcitabine, reference compound], the “TGI (tumor growth inhibition)” value (Mia PaCa-2 tumor; 20 mg/kg gemcitabine) was 38.7%, the “TGI (tumor growth inhibition)” value (Mia PaCa-2 tumor; 100 mg/kg) was 73.7% and the “TGI (tumor growth inhibition)” value (BxPc-3 tumor; 20 mg/kg, biw) was 34.6%. The “TGI (tumor growth inhibition)” value (BxPc-3 tumor; 100 mg/kg, qwk) was 59.8%.

B1: Humanized IgG hSD5 (antibody, V domains shown)
VH: QVQLVESGGGLVQPGGSLRLSCAASGFTFSDYGMGWVRQAPGKGLEWVAGISAAGSFTPYGAAVKGRFTISRDNSKNTVYLQMNSLRAEDTAVYYCARIPSGYRAGEIYTWGQGTLVTVSS
VL: LTQPPSVSVSPGQTVRITCSGSSGSYGWYQQKSPGQAPVTLIYDNDKRPSGIPERFSGSSSGSTSTLTISGVQAEDEADYYCGSADSSTYVGMFGGGTKLTVL
notes: also called hSD5 IgG; hSD5 IgG1
With B1 the Kd [1] was 2.06 nM, the binding result [2] was “binds” and the binding result [3] was “binds”. B1: binds [4].

B2: scFv SD5 (scFv)
scFv: LTQPSSVSANLGETVKIPCSGSSGSYGWYQQKSPGSAPVTLIYDNDKRPSDIPSRFFGSTSGSTSTLTITGVQAEDEAVYFCGSADSSTYVGMFGAGTTLTVLGQSSRSSTVTLDESGGGLQTPGGGLSLVCKASGFTFSDYGMGWVRQAPGKGLEFVAGISAAGSFTPYGAAVKGRATISRDNGQSTVRLQLNNLRSEDTGIYYCARIPSGYRAGEIYTWGQGTEVIVSS
notes: also called antibody SD5
Molecule B2 has an EC50 [5] of 1.8 nM.

B3: ephrin-A1: ligand of EphA2, recombinant, used as a positive control (protein)
chain: DRHTVFWNSSNPKFRNEDYTIHVQLNDYVDIICPHYEDHSVADAAMEQYILYLVEHEEYQLCQPQSKDQVRWQCNRPSAKHGPEKLSEKFQRFTPFTLGKEFKEGHSYYYISKPIHQHEDRCLRLKVTVSGKITHSPQAHDNPQEKRLAADDPEVRVLHSIGHS
modifications: left off: a dimerising Fc or GST
notes: ligand of EphA2, recombinant, used as a positive control
In the case of B3, the “endocytosis after targeting EphA2” value (BxPc-3 cells) is reported as “endocytosed from the cell membrane into the cytoplasm”.
